Consider 27 molecules from article PMC10786891, “Massively parallel profiling of RNA-targeting CRISPR-Cas13d”.

T1: EsCas13d, nuclease-dead (Eubacterium siraeum, UniProt B0MS50, R295A;H300A;R849A;H854A)
T1 sequence: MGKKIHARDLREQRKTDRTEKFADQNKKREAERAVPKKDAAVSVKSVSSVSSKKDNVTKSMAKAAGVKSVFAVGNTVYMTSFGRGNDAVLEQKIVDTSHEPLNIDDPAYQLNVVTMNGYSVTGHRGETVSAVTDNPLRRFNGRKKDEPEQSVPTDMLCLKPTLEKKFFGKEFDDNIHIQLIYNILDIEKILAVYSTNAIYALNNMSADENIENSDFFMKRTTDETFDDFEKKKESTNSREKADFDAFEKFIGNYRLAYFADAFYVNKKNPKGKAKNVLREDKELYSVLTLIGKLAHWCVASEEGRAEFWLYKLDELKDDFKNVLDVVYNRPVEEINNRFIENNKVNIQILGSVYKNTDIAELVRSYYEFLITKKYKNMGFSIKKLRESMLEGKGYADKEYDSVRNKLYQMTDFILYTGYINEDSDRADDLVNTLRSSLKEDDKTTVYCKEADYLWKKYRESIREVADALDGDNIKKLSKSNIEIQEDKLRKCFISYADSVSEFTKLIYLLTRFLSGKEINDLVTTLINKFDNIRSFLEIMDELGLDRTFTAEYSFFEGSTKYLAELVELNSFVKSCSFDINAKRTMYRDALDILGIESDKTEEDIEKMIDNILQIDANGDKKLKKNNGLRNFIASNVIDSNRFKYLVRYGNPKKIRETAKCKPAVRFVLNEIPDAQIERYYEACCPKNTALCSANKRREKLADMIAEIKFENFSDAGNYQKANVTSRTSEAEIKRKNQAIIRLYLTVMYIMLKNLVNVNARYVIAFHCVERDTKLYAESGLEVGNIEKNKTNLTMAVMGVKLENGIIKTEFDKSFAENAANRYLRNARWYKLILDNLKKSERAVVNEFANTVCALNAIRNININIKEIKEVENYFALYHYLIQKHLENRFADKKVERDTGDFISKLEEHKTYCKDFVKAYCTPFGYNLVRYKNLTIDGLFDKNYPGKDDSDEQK

B1: target 1 A1U,G13A (mixed)
RNA 1: CACCCGUGCAAAAAUGCAGGGGUCUAAAACUGAGCGGAUAACCUCUCUAUGG
RNA 2: GGGAAUGGAUCCACAUCUACGAAUUCGUACCAUAGAGAAGUUAUCCGCUCUCCGAGAUCGGAAGAGCACACGU
B2: target 1 insU 3' of 22,insG 3' of 14 (mixed)
RNA 1: CACCCGUGCAAAAAUGCAGGGGUCUAAAACUGAGCGGAUAACCUCUCUAUGG
RNA 2: GGGAAUGGAUCCACAUCUACGAAUUCGUACUCAUAGAGAGGGUUAUCCGCUCACCGAGAUCGGAAGAGCACACGU
B3: target 1 insA 3' of 13,insA 3' of 11 (mixed)
RNA 1: CACCCGUGCAAAAAUGCAGGGGUCUAAAACUGAGCGGAUAACCUCUCUAUGG
RNA 2: GGGAAUGGAUCCACAUCUACGAAUUCGUACCAUAGAGAGAGUAUAUCCGCUCACCGAGAUCGGAAGAGCACACGU
B4: target 2 MT 5'PFS UCA 3'PFS CUC (mixed)
RNA 1: CACCCGUGCAAAAUUGCAGGGGUCUAAAACCUUCUCCAAAUUGUUUCAUCCU
RNA 2: GGGAAUGGAUCCACAUCUACGAAUUCUCAAGGAUGAAACAAUUUGGAGAAGCUCAGAUCGGAAGAGCACACGU
B5: target 2 MT 5'PFS CAU 3'PFS ACA (mixed)
RNA 1: CACCCGUGCAAAAUUGCAGGGGUCUAAAACCUUCUCCAAAUUGUUUCAUCCU
RNA 2: GGGAAUGGAUCCACAUCUACGAAUUCCAUAGGAUGAAACAAUUUGGAGAAGACAAGAUCGGAAGAGCACACGU
B6: target 2 MT 5'PFS UAU 3'PFS UUG (mixed)
RNA 1: CACCCGUGCAAAAUUGCAGGGGUCUAAAACCUUCUCCAAAUUGUUUCAUCCU
RNA 2: GGGAAUGGAUCCACAUCUACGAAUUCUAUAGGAUGAAACAAUUUGGAGAAGUUGAGAUCGGAAGAGCACACGU
B7: target 2 MT 5'PFS UAU 3'PFS CAA (mixed)
RNA 1: CACCCGUGCAAAAUUGCAGGGGUCUAAAACCUUCUCCAAAUUGUUUCAUCCU
RNA 2: GGGAAUGGAUCCACAUCUACGAAUUCUAUAGGAUGAAACAAUUUGGAGAAGCAAAGAUCGGAAGAGCACACGU
B8: target 2 MT 5'PFS AAA 3'PFS UCG (mixed)
RNA 1: CACCCGUGCAAAAUUGCAGGGGUCUAAAACCUUCUCCAAAUUGUUUCAUCCU
RNA 2: GGGAAUGGAUCCACAUCUACGAAUUCAAAAGGAUGAAACAAUUUGGAGAAGUCGAGAUCGGAAGAGCACACGU
B9: target 2 MT 5'PFS GCA 3'PFS UAG (mixed)
RNA 1: CACCCGUGCAAAAUUGCAGGGGUCUAAAACCUUCUCCAAAUUGUUUCAUCCU
RNA 2: GGGAAUGGAUCCACAUCUACGAAUUCGCAAGGAUGAAACAAUUUGGAGAAGUAGAGAUCGGAAGAGCACACGU
B10: target 2 MT 5'PFS GAC 3'PFS UAA (mixed)
RNA 1: CACCCGUGCAAAAUUGCAGGGGUCUAAAACCUUCUCCAAAUUGUUUCAUCCU
RNA 2: GGGAAUGGAUCCACAUCUACGAAUUCGACAGGAUGAAACAAUUUGGAGAAGUAAAGAUCGGAAGAGCACACGU
B11: target 2 MT 5'PFS UCA 3'PFS CUG (mixed)
RNA 1: CACCCGUGCAAAAUUGCAGGGGUCUAAAACCUUCUCCAAAUUGUUUCAUCCU
RNA 2: GGGAAUGGAUCCACAUCUACGAAUUCUCAAGGAUGAAACAAUUUGGAGAAGCUGAGAUCGGAAGAGCACACGU
B12: target 2 MT 5'PFS GAC 3'PFS UAU (mixed)
RNA 1: CACCCGUGCAAAAUUGCAGGGGUCUAAAACCUUCUCCAAAUUGUUUCAUCCU
RNA 2: GGGAAUGGAUCCACAUCUACGAAUUCGACAGGAUGAAACAAUUUGGAGAAGUAUAGAUCGGAAGAGCACACGU
B13: target 2 MT 5'PFS AAA 3'PFS UCC (mixed)
RNA 1: CACCCGUGCAAAAUUGCAGGGGUCUAAAACCUUCUCCAAAUUGUUUCAUCCU
RNA 2: GGGAAUGGAUCCACAUCUACGAAUUCAAAAGGAUGAAACAAUUUGGAGAAGUCCAGAUCGGAAGAGCACACGU
B14: target 2 MT 5'PFS UCA 3'PFS CUA (mixed)
RNA 1: CACCCGUGCAAAAUUGCAGGGGUCUAAAACCUUCUCCAAAUUGUUUCAUCCU
RNA 2: GGGAAUGGAUCCACAUCUACGAAUUCUCAAGGAUGAAACAAUUUGGAGAAGCUAAGAUCGGAAGAGCACACGU
B15: target 2 MT 5'PFS UAU 3'PFS CAC (mixed)
RNA 1: CACCCGUGCAAAAUUGCAGGGGUCUAAAACCUUCUCCAAAUUGUUUCAUCCU
RNA 2: GGGAAUGGAUCCACAUCUACGAAUUCUAUAGGAUGAAACAAUUUGGAGAAGCACAGAUCGGAAGAGCACACGU
B16: target 2 MT 5'PFS UAU 3'PFS UUA (mixed)
RNA 1: CACCCGUGCAAAAUUGCAGGGGUCUAAAACCUUCUCCAAAUUGUUUCAUCCU
RNA 2: GGGAAUGGAUCCACAUCUACGAAUUCUAUAGGAUGAAACAAUUUGGAGAAGUUAAGAUCGGAAGAGCACACGU
B17: target 2 MT 5'PFS AUC 3'PFS AAC (mixed)
RNA 1: CACCCGUGCAAAAUUGCAGGGGUCUAAAACCUUCUCCAAAUUGUUUCAUCCU
RNA 2: GGGAAUGGAUCCACAUCUACGAAUUCAUCAGGAUGAAACAAUUUGGAGAAGAACAGAUCGGAAGAGCACACGU
B18: target 2 MT 5'PFS GAC 3'PFS UAG (mixed)
RNA 1: CACCCGUGCAAAAUUGCAGGGGUCUAAAACCUUCUCCAAAUUGUUUCAUCCU
RNA 2: GGGAAUGGAUCCACAUCUACGAAUUCGACAGGAUGAAACAAUUUGGAGAAGUAGAGAUCGGAAGAGCACACGU
B19: target 2 MT 5'PFS CAU 3'PFS ACC (mixed)
RNA 1: CACCCGUGCAAAAUUGCAGGGGUCUAAAACCUUCUCCAAAUUGUUUCAUCCU
RNA 2: GGGAAUGGAUCCACAUCUACGAAUUCCAUAGGAUGAAACAAUUUGGAGAAGACCAGAUCGGAAGAGCACACGU
B20: target 2 MT 5'PFS GCA 3'PFS UAA (mixed)
RNA 1: CACCCGUGCAAAAUUGCAGGGGUCUAAAACCUUCUCCAAAUUGUUUCAUCCU
RNA 2: GGGAAUGGAUCCACAUCUACGAAUUCGCAAGGAUGAAACAAUUUGGAGAAGUAAAGAUCGGAAGAGCACACGU
B21: target 2 MT 5'PFS GCA 3'PFS UAU (mixed)
RNA 1: CACCCGUGCAAAAUUGCAGGGGUCUAAAACCUUCUCCAAAUUGUUUCAUCCU
RNA 2: GGGAAUGGAUCCACAUCUACGAAUUCGCAAGGAUGAAACAAUUUGGAGAAGUAUAGAUCGGAAGAGCACACGU
B22: target 2 MT 5'PFS GCA 3'PFS UAC (mixed)
RNA 1: CACCCGUGCAAAAUUGCAGGGGUCUAAAACCUUCUCCAAAUUGUUUCAUCCU
RNA 2: GGGAAUGGAUCCACAUCUACGAAUUCGCAAGGAUGAAACAAUUUGGAGAAGUACAGAUCGGAAGAGCACACGU
B23: target 2 MT 5'PFS UAU 3'PFS CAG (mixed)
RNA 1: CACCCGUGCAAAAUUGCAGGGGUCUAAAACCUUCUCCAAAUUGUUUCAUCCU
RNA 2: GGGAAUGGAUCCACAUCUACGAAUUCUAUAGGAUGAAACAAUUUGGAGAAGCAGAGAUCGGAAGAGCACACGU
B24: target 2 MT 5'PFS CUG 3'PFS AUC (mixed)
RNA 1: CACCCGUGCAAAAUUGCAGGGGUCUAAAACCUUCUCCAAAUUGUUUCAUCCU
RNA 2: GGGAAUGGAUCCACAUCUACGAAUUCCUGAGGAUGAAACAAUUUGGAGAAGAUCAGAUCGGAAGAGCACACGU
B25: target 2 MT 5'PFS GCG 3'PFS CGC (mixed)
RNA 1: CACCCGUGCAAAAUUGCAGGGGUCUAAAACCUUCUCCAAAUUGUUUCAUCCU
RNA 2: GGGAAUGGAUCCACAUCUACGAAUUCGCGAGGAUGAAACAAUUUGGAGAAGCGCAGAUCGGAAGAGCACACGU
B26: target 2 MT 5'PFS CAU 3'PFS UCA (mixed)
RNA 1: CACCCGUGCAAAAUUGCAGGGGUCUAAAACCUUCUCCAAAUUGUUUCAUCCU
RNA 2: GGGAAUGGAUCCACAUCUACGAAUUCCAUAGGAUGAAACAAUUUGGAGAAGUCAAGAUCGGAAGAGCACACGU
B27: target 2 MT 5'PFS GAC 3'PFS UAC (mixed)
RNA 1: CACCCGUGCAAAAUUGCAGGGGUCUAAAACCUUCUCCAAAUUGUUUCAUCCU
RNA 2: GGGAAUGGAUCCACAUCUACGAAUUCGACAGGAUGAAACAAUUUGGAGAAGUACAGAUCGGAAGAGCACACGU

The series addresses T1, EsCas13d, nuclease-dead. Kind of series: crRNA (strand 1, pre-loaded); Mg2+; 40 mM Tris-HCl pH 7.5, 150 mM NaCl, 6 mM MgCl2, 1 mM DTT, 0.1% Tween-20, 0.2 mg/ml BSA; 25 C; 10 min per concentration, then washed. The settings on record: tags: His6-TwinStrep-SUMO cleaved; N-terminal SNAP kept (SNAP-Surface 488); label: 3' end held by stalled T7 RNA polymerase.
In general, Kd refers to the constant that tells how readily two partners part at equilibrium. Turning to B1, the Kd turned out to be 6.4 ± 0.5 nM.

In turn, B2 displayed an equilibrium dissociation constant (Kd) of 68 ± 22 nM.

For the molecule B3, the Kd was 3.87 ± 0.21 nM.

Molecule B4 came in with a Kd of 8.7 ± 2.2 nM.

Take B5: the Kd is 6 ± 1.2 nM.

Molecule B6 registered a Kd of 23.1 ± 3.1 nM.

The molecule B7 yielded a Kd of 14.2 ± 1.5 nM.

B8 returned a Kd of 4.9 ± 1.1 nM.

B9 gave an equilibrium dissociation constant (Kd) of 12.3 ± 2.1 nM.

As for B10, the Kd was determined as 9.5 ± 1.8 nM.

For B11, the Kd is 7.3 ± 1.1 nM.

For the molecule B12, the dissociation constant Kd was found to be 10.8 ± 2.4 nM.

Take B13: binding was characterised by a dissociation constant (Kd) of 7.3 ± 1.4 nM.

B14 returned a Kd of 6.3 ± 1.7 nM.

As for B15, the equilibrium dissociation constant (Kd) is 47 ± 9 nM.

In turn, B16 showed a dissociation constant Kd of 33 ± 9 nM.

B17 had a dissociation constant Kd of 25 ± 11 nM.

In the case of B18, the Kd amounted to 7.5 ± 1 nM.

Consider B19, for which the Kd came out at 5.9 ± 0.7 nM.

Molecule B20 gave a dissociation constant (Kd) of 6.4 ± 1.3 nM.

B21 yielded a Kd of 10.7 ± 1.5 nM.

Turning to B22, binding was put at a Kd of 12.3 ± 2.6 nM.

The molecule B23 displayed a Kd of 34 ± 7 nM.

Turning to B24, the Kd was found to be 2.3 ± 0.4 nM.

B25 yielded a Kd of 12 ± 0.7 nM.

B26 displayed a Kd of 6.4 ± 1.5 nM.

As for B27, the equilibrium dissociation constant (Kd) is 27 ± 8 nM.
